Assays:
FET3 = experiment: FET3-lacZ reporter in wild type yeast carrying empty expression plasmid; type: cell-based, Saccharomyces cerevisiae; conditions: no human PAQR
Excerpt: Assays and growth conditions. Strains were maintained using standard protocol and grown in synthetic defined (SD) media with the appropriate amino acids to match the auxotrophies of the individual strains. Low Iron Medium (LIM) contains EDTA to limit iron-bioavailability and its composition has been previously described (Kupchak et al., 2007). […] In brief, overnights of cells grown in SD-glucose media were re-inoculated into iron-deficient LIM to induce the expression of FET3. 2% galactose was used as a carbon source to induce full expression of PAQR genes driven by the GAL1 promoter, while 0.05% galactose/1.95% raffinose was used for reduced PAQR expression. All ligands were added to the growth medium upon re-inoculation into LIM. For experiments in which steroids were added as ligands, steroids were added from ethanol stocks and “untreated” controls are actually treated with an equal volume of ethanol to control for vehicle effects. Cells were allowed to grow to mid-log phase at which time the activity of the FET3 gene was monitored using a FET3-lacZ promoter-reporter construct. lacZ activities are presented as a percentage of activity seen in untreated cells expressing the appropriate empty expression vector control. For individual experiments, each data point has been done in triplicate and the error bars represent +/−1 standard deviation. All experiments were performed at least three times and a representative experiment is shown. EC50 values were obtained using the web-based BioDataFit software using sigmoidal curve-fitting. (web site changbioscience.com/stat/ec50.html)

AdipoR2 = experiment: FET3-lacZ (pFET3-397) reporter repression in yeast expressing AdipoR2; type: cell-based, human
Excerpt: (§1) IZH1-4 were cloned into pRS316-GAL1 via gap repair as previously described (Lyons et al., 2004). The triple hemaglutinin epitope (3×HA) tagged construct of the IZH2 gene was generated by replacing the ZRC1 promoter and open reading frame in the YCpZRC1-HA plasmid (MacDiarmid et al., 2002) with those of IZH2. This was accomplished by gap repair of Age I-digested YCpZRC1-HA to generate pIZH2-3×HA. This construct has the IZH2 gene driven by its native promoter and retains the ZRC1 terminator sequence. The native IZH2 promoter was then exchanged with the GAL1 promoter using gap repair of pIZH2-3×HA plasmids cut with EcoN I. AdipoR1 and AdipoR2 were amplified from cDNAs obtained from OpenBiosystems (Accession #: BC010743 and BC051858, respectively). PCR products were cloned into NcoI/BamHI digested pYES260 vector (Melcher, 2000) by gap repair allowing for GAL1-driven expression. Plasmids containing GAL1-driven the TAP (Tandem Affinity Purification) tagged NRG1 and NRG2 constructs were purchased from OpenBiosystems.
Most experiments were performed in a defined EDTA-containing medium known as low iron medium (LIM) (Eide et al., 1992). Iron-deficiency and repletion were generated by adding either 1 μM or 1 mM of FeCl3, respectively, to LIM. 2% galactose was used to fully induce GAL1-driven gene overexpression. Total sugar concentration was maintained at 2% by the addition of raffinose in those experiments in which the % galactose was modulated to decrease expression levels. Cells were allowed to grow to mid-log phase in LIM and β-galactosidase assays on permeabilized yeast were performed as previously described (Lyons et al., 2000). […]
(§2) Assays and growth conditions. […] Cells were allowed to grow to mid-log phase at which time the activity of the FET3 gene was monitored using a FET3-lacZ promoter-reporter construct. lacZ activities are presented as a percentage of activity seen in untreated cells expressing the appropriate empty expression vector control. […]

AdipoR1 = target: T1, AdipoR1 (Homo sapiens, UniProt Q96A54); experiment: FET3-lacZ (pFET3-397) reporter repression in yeast expressing AdipoR1; type: cell-based; conditions: low levels of AdipoR1 (0.02% galactose)
T1 construct: expressed in transfected cells; host or cells: Saccharomyces cerevisiae BY4742, GAL1-driven pYES260 plasmid
T1 sequence (Q96A54 1-375): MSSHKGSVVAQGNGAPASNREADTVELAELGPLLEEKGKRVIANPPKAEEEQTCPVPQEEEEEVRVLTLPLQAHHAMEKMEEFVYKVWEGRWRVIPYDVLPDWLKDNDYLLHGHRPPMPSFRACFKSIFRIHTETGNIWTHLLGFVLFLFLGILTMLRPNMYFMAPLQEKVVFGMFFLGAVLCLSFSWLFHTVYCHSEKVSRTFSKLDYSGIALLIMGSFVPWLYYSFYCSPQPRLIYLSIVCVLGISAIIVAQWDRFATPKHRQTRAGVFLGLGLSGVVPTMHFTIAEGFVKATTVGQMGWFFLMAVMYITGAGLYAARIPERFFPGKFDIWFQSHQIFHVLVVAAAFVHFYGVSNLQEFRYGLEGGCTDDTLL
Excerpt: as §1, with “OpenBiosystems. […]” for “OpenBiosystems.”
as §2

Chain of AdipoR2 (Q86V24 76-386 limits assumed): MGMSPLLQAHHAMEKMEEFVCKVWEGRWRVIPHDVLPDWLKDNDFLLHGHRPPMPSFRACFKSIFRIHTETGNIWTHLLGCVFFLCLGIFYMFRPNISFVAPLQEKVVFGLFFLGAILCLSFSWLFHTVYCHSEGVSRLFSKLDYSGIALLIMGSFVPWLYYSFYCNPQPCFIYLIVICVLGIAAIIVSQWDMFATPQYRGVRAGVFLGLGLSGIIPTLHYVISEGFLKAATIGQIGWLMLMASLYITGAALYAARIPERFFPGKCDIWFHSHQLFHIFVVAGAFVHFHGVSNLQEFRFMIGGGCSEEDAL

B1: Adiponectin: insulin-sensitizing hormone, agonist of the human adiponectin receptors AdipoR1 and AdipoR2 (protein, UniProt Q15848 19-244, looked up)
Adiponectin: ETTTQGPGVLLPLPKGACTGWMAGIPGHPGHNGAPGRDGRDGTPGEKGEKGDPGLIGPKGDIGETGVPGAEGPRGFPGIQGRKGEPGEGAYVYRSAFSVGLETYVTIPNMPIRFTKIFYNQQNHYDGSTGKFHCNIPGLYYFAYHITVYMKDVKVSLFKKDKAMLFTYDQYQENNVDQASGSVLLHLEVGDQVWLQVYGEGERNGLYADNDNDSTFTGFLLYHDTN
- effect of ligand on FET3 in cells carrying empty expression plasmid (FET3): did not respond
- EC50 (AdipoR2; AdipoR2, FET3 repression in iron-deficient LIM): 2.4 pM
- pFET3-397 repression by adiponectin (AdipoR2; AdipoR2 in 2% galactose): repressed in a dose-dependent manner
- pFET3-397 repression by adiponectin (AdipoR1): repressed in a dose-dependent manner
